# Read-outs that look alike come from different tables or passages of the source.
# B1: MBP-FUS(NES) chimera (PY-NLS replaced with the NES from the NS2 protein of MVM virus) (other)
# chain: MASNDYTQQATQSYGAYPTQPGQGYSQQSSQPYGQQSYSGYSQSTDTSGYGQSSYSSYGQSQNTGYGTQSTPQGYGSTGGYGSSQSSQSSYGQQSSYPGYGQQPAPSSTSGSYGSSSQSSSYGQPQSGSYSQQPSYGGQQQSYGQQQSYNPPQGYGQQNQYNSSSGGGGGGGGGGNYGQDQSSMSSGGGSGGGYGNQDQSGGGGSGGYGQQDRGGRGRGGSGGGGGGGGGGYNRSSGGYEPRGRGGGRGGRGGMGGSDRGGFNKFGGPRDQGSRHDSEQDNSDNNTIFVQGLGENVTIESVADYFKQIGIIKTNKKTGQPMINLYTDRETGKLKGEATVSFDDPPSAKAAIDWFDGKEFSGNPIKVSFATRRADFNRGGGNGRGGRGRGGPMGRGGYGGGGSGGGGRGGFPSGGGGGGGQQRAGDWKCPNPTCENMNFSWRNECNQCKAPKPDGPGGGPGGSHMGGNYGDDRRGGRGGYDRGGYRGRGGDRGGFRGGRGGYSTVDEMTKKFGTLTIH
# B2: MBP-FUS(453–526) (domain or fragment, UniProt P35637 453-526, looked up)
# chain: DGPGGGPGGSHMGGNYGDDRRGGRGGYDRGGYRGRGGDRGGFRGGRGGGDRGGFGPGKMDSRGEHRQDRRERPY
# B3: MBP-FUS(371–526) (domain or fragment, UniProt P35637 371-526, looked up)
# chain: RRADFNRGGGNGRGGRGRGGPMGRGGYGGGGSGGGGRGGFPSGGGGGGGQQRAGDWKCPNPTCENMNFSWRNECNQCKAPKPDGPGGGPGGSHMGGNYGDDRRGGRGGYDRGGYRGRGGDRGGFRGGRGGGDRGGFGPGKMDSRGEHRQDRRERPY
# B4: Kapβ2Δloop (residues 337–367 replaced with a GGSGGSG linker) (natural protein, human)
# chain: MEYEWKPDEQGLQQILQLLKESQSPDTTIQRTVQQKLEQLNQYPDFNNYLIFVLTKLKSEDEPTRSLSGLILKNNVKAHFQNFPNGVTDFIKSECLNNIGDSSPLIRATVGILITTIASKGELQNWPDLLPKLCSLLDSEDYNTCEGAFGALQKICEDSAEILDSDVLDRPLNIMIPKFLQFFKHSSPKIRSHAVACVNQFIISRTQALMLHIDSFIENLFALAGDEEPEVRKNVCRALVMLLEVRMDRLLPHMHNIVEYMLQRTQDQDENVALEACEFWLTLAEQPICKDVLVRHLPKLIPVLVNGMKYSDIDIILLKGDVEEDETIPDSEQDIRGGSGGSGDTISDWNLRKCSAAALDVLANVYRDELLPHILPLLKELLFHHEWVVKESGILVLGAIAEGCMQGMIPYLPELIPHLIQCLSDKKALVRSITCWTLSRYAHWVVSQPPDTYLKPLMTELLKRILDSNKRVQEAACSAFATLEEEACTELVPYLAYILDTLVFAFSKYQHKNLLILYDAIGTLADSVGHHLNKPEYIQMLMPPLIQKWNMLKDEDKDLFPLLECLSSVATALQSGFLPYCEPVYQRCVNLVQKTLAQAMLNNAQPDQYEAPDKDFMIVALDLLSGLAEGLGGNIEQLVARSNILTLMYQCMQDKMPEVRQSSFALLGDLTKACFQHVKPCIADFMPILGTNLNPEFISVCNNATWAIGEISIQMGIEMQPYIPMVLHQLVEIINRPNTPKTLLENTAITIGRLGYVCPQEVAPMLQQFIRPWCTSLRNIRDNEEKDSAFRGICTMISVNPSGVIQDFIFFCDAVASWINPKDDLRDMFCKILHGFKNQVGDENWRRFSDQFPLPLKERLAAFYGV
# Assays:
# GST-CRM1 = GST-CRM1 (human, UniProt O14980 1-1071); experiment: pull-down
# MBP-FUS [1] = molecular target: T1, MBP-FUS (UniProt P35637 1-526); experiment: gel filtration co-elution
# Karyopherin-β2 (Kapβ2) = molecular target: T2, Karyopherin-β2 (Kapβ2) (human, UniProt Q92973-2 1-890); experiment: ITC
# T2 sequence: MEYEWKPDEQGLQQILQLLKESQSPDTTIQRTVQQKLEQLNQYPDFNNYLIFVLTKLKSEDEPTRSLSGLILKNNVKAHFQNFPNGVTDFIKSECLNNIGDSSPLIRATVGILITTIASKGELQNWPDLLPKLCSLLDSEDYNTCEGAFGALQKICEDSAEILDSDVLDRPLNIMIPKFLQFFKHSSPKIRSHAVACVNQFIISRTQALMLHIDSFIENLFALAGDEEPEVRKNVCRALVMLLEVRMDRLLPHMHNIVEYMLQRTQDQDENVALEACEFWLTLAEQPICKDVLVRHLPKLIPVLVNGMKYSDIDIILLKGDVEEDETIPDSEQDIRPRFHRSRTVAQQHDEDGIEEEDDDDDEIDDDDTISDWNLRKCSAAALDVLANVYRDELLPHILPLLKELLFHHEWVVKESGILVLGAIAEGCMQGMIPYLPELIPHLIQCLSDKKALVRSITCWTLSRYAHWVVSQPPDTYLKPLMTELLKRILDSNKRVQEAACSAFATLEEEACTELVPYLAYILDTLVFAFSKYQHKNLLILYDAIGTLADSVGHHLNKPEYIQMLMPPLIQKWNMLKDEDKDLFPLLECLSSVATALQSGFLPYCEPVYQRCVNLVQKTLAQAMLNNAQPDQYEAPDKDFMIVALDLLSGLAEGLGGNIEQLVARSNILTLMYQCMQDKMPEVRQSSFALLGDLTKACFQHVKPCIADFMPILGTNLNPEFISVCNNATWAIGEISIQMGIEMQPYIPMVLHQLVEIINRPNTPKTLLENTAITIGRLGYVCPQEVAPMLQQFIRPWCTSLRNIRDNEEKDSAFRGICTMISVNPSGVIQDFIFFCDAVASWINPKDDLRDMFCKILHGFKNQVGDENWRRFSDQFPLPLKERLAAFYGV
# MBP-FUS [2] = molecular target: T1, MBP-FUS; experiment: gel filtration co-elution; remark: listed apart in the source
# FUS(456–526) = molecular target: T3, FUS(456–526) (UniProt P35637 456-526); experiment: crystal structure
# T3 sequence (looked up): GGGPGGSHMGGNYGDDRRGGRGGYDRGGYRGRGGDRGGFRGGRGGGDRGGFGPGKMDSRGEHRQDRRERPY
# [3] = molecular target: T4, FUS (full-length), MBP removed with Tev protease (UniProt P35637 1-526); experiment: crystal structure
# T4 sequence (looked up): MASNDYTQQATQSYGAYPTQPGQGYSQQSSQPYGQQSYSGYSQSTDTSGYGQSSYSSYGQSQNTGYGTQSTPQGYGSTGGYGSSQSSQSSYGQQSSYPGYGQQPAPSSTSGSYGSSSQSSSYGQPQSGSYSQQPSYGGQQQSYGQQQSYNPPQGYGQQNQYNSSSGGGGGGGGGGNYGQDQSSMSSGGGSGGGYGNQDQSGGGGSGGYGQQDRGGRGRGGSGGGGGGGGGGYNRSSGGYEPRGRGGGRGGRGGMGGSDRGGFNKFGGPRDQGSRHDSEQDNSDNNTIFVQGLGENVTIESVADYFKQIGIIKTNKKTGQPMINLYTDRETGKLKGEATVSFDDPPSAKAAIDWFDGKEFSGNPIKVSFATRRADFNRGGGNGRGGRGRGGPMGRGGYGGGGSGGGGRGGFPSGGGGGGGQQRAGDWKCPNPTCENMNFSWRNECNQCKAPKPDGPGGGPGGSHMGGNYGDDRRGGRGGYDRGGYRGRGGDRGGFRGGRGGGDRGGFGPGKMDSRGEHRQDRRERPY
# FUS(371–526) = molecular target: T5, FUS(371–526) (UniProt P35637 371-526); experiment: crystal structure
# T5 sequence (looked up): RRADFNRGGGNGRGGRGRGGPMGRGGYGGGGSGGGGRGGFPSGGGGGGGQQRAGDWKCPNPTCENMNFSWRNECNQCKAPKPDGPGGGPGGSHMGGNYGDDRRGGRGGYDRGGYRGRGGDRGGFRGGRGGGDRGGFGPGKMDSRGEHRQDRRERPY
# GST-CRM1, sequence (O14980 whole entry): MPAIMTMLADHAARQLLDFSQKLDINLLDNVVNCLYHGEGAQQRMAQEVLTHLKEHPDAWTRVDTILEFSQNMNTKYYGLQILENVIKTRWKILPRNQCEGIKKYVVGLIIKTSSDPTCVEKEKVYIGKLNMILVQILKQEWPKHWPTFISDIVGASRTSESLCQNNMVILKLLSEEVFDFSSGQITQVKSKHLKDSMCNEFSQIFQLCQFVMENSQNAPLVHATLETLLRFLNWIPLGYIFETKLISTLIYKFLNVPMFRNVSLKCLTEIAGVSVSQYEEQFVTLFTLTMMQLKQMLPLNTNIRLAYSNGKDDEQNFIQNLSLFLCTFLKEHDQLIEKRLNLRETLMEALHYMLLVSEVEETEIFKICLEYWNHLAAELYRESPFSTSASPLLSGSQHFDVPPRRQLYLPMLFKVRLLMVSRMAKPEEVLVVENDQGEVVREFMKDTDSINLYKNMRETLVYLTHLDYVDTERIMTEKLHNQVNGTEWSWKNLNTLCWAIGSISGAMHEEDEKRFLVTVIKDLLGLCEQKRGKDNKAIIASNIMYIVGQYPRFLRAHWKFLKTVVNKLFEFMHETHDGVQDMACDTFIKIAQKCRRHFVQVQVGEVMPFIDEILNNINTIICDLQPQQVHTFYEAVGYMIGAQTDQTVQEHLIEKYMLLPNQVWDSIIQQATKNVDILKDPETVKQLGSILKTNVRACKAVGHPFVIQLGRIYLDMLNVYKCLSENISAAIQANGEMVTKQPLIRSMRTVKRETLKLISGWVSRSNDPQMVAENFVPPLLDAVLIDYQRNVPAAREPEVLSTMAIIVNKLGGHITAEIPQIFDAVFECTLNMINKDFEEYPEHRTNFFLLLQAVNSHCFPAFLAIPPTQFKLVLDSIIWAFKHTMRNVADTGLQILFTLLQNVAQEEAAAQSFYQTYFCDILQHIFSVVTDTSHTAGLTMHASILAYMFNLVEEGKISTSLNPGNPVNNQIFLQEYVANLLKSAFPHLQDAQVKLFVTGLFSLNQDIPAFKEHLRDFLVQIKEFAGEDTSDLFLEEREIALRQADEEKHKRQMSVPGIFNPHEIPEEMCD
binder,measurement,setting,value
B1,binding result,GST-CRM1,binds
AUUGAGGAGCAGCAGAGAAGUUGGAGUGAAGGCAGAGAGGGGUUAAGG (ssRNA) [prD (DNMT) RNA],binding result,MBP-FUS [1],binds
B2,binding result,Karyopherin-β2 (Kapβ2),binds
B3,binding result,Karyopherin-β2 (Kapβ2),binds
UUAGGGUUAGGGUUAGGGUUAGGG (structured_RNA) [TERRA RNA],binding result,MBP-FUS [2],binds
B4,binding result,FUS(456–526),binds
same,binding result,[3],binds
same,binding result,FUS(371–526),binds

# Source: article PMC6234985 (Cell, 2018)
